Positions count from the first letter of the chain named.
T1: human C2 D282A (human, UniProt P06681 21-752)
T1 sequence: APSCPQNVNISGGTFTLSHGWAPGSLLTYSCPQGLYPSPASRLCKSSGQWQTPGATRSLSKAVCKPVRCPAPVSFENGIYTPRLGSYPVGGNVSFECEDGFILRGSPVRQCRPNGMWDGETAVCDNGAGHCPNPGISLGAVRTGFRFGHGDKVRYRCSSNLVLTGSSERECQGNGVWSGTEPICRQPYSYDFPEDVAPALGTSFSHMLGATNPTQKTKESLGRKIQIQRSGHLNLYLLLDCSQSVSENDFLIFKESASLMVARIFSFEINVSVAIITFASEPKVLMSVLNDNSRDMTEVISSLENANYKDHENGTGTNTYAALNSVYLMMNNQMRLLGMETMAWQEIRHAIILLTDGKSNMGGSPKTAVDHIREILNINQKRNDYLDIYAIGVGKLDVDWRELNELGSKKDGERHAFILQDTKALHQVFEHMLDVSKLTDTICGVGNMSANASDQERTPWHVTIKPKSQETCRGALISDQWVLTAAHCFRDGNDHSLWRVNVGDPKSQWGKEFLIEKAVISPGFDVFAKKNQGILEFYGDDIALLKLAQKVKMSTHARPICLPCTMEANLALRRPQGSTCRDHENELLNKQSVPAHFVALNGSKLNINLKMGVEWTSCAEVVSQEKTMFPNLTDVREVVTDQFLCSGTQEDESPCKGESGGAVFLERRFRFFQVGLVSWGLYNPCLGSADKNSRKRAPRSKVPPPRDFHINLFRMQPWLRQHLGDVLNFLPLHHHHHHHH

T2: human C2 L439A (human, UniProt P06681 21-752)
T2 sequence: T1 sequence with A262D, L419A

T3: human C2 N471A (human, UniProt P06681 21-752)
T3 sequence: T1 sequence with A262D, N451A

T4: human complement C2 (human, UniProt P06681 21-752)
T4 construct: Recombinant full-length human C2 with C-terminal 8x His tag, purified from Expi293F supernatant; also called human C2; huC2
T4 sequence: T1 sequence with A262D

B1: RF16-242 (antibody, human IgG4 S228P, lambda, V domains shown)
VH: EVQLLQSGAEVKKPGESLKISCKGSGYSFTSYWIGWVRQMPGKGLEWMGIIYPGDSDTRYSPSFQGQVTISADKSISTAYLQWSSLKASDTAMYYCARRGHYGDYFDYWGQGTLVTVSS
VL: SYELTQPPSVSVSPGQTARITCSGDALPKKYAYWYHQKSGQAPVLVIYEDRRRPSEIPERFSGSSSGTMATLTITGAQVEDEGVYFCYSRDRAGNQRVFGGGTQLTVLG
notes: pH-dependent anti-C2 antibody from a phage display library
B2: RF16-226 (antibody)
heavy: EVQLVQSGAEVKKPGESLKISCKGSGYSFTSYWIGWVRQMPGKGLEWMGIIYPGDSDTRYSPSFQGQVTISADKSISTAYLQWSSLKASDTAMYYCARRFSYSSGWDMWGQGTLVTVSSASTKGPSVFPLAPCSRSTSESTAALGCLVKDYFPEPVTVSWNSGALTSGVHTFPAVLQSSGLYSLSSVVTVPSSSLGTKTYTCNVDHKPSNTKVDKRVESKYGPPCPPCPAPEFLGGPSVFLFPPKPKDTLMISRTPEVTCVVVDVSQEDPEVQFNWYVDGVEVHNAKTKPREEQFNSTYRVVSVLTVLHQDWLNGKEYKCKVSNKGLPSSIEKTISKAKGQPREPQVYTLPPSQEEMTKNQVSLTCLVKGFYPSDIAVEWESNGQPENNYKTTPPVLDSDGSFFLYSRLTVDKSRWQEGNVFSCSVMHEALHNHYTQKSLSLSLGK
light: SYELTQPPSVSVSPGQTARITCSGDALTSKYVAWYQQKSGLAPLLVIYEDTRRPSGIPAKFSGSSSGSVATLTISGAHGDDEADYYCYSTDASGHQRVFGGGTKLTVLSQPKAAPSVTLFPPSSEELQANKATLVCLISDFYPGAVTVAWKADGSPVKAGVETTKPSKQSNNKYAASSYLSLTPEQWKSHRSYSCQVTHEGSTVEKTVAPTECS

Experiments:
human C2 D282A = molecular target: T1, human C2 D282A; assay: SPR, antibody captured, C2 as analyte;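 note: biacore at 37 °C, anti-C2 mAbs held by immobilised goat anti-human IgG, C2 alanine or serine mutants injected, double-referenced sensorgrams fitted to a 1:1 kinetic or steady-state model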
human C2 L439A = molecular target: T2, human C2 L439A; assay: SPR, antibody captured, C2 as analyte;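 note: biacore at 37 °C, anti-C2 mAbs held by immobilised goat anti-human IgG, C2 alanine or serine mutants injected, double-referenced sensorgrams fitted to a 1:1 kinetic or steady-state model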
human C2 N471A = molecular target: T3, human C2 N471A; assay: SPR, antibody captured, C2 as analyte;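 note: biacore at 37 °C, anti-C2 mAbs held by immobilised goat anti-human IgG, C2 alanine or serine mutants injected, double-referenced sensorgrams fitted to a 1:1 kinetic or steady-state model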
human complement C2 = molecular target: T4, human complement C2; assay: SPR, mAb captured, huC2 analyte, pH 7.3

Binder	Kd (human C2 D282A)	Kd (human C2 L439A)	Kd (human C2 N471A)	Kd (human complement C2)
B1	8 nM	170 nM	9.2 nM	–
B2	–	–	–	~10 nM
